Assay results as given in patent EP2479185A1 (INSTITUT PASTEUR, dated 2012).

Experiments:
[1] = target: the molecule itself; test: SDS-PAGE and MALDI-TOF MS of purified VAPs (self-assembly)
[2] = target: the molecule itself; test: heterologous expression in E. coli and electron microscopy of thin sections (self-assembly)

| Protein | binding result [1] | binding result [2] |
| --- | --- | --- |
| P98 protein of Sulfolobus islandicus rod-shaped virus 2 (SIRV2) (other, Assayed as assembled VAPs (homomultimeric pyramids) from SIRV2-infected S. islandicus; Also used here for P98 expressed from pSVA1059 in S. acidocaldarius, for which no tag is stated; The number of monomers per VAP was not measured; also called SIRV2-P98; protein 98) MAITLLEGALYGFFAVTGILVGSFVVGEIVHLYNEKQNNENFAKAVDQMSKSTVIAVESIKDTTTTAINALLNMDTLRDVNALAREKAKDQNPNTQAK | binds |  |
| recombinant C-terminal his-tagged P98 expressed in E. coli Rosetta(DE3)pLys from pSVA1051 (other, Found primarily in the E. coli membrane fraction, where it forms closed VAPs on the inner membrane; also called recombinant P98; E. coli 1051 expressing SIRV2-ORF98; not shown: C-terminal his tag) MAITLLEGALYGFFAVTGILVGSFVVGEIVHLYNEKQNNENFAKAVDQMSKSTVIAVESIKDTTTTAINALLNMDTLRDVNALAREKAKDQNPNTQAK |  | binds |
